# According to the supplement of paper PMC9170038:
# Test system: MS2 coat protein
# Assay: apparent KD of MS2 coat protein; designed switch direction (-1 OFF switch, 1 ON switch): -1; higher = weaker reporter binding
# Outline: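 Each step of the titration lasted 0.8–1.5 h at the lowest concentration and 10–20 min at the highest. The protein, SNAP-549-labelled MS2 coat protein, went from 0.7 or 1.5 nM doubling to 3 µM over RNA switches transcribed on Illumina chips by stalled E. coli RNA polymerase. Normalised cluster fluorescence was curve-fitted, and the per-design median over clusters is given as apparent KD.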
# [1] = input ligand: microRNA oligo, concentration not stated
# [2] = Eterna round: R95, input ligand: FMN 200 uM
# [3] = Eterna round: R95, input ligand: microRNA oligo, concentration not stated
# [4] = Eterna round: R95, input ligand: none
Sequence,apparent KD of MS2 coat protein (input ligand: FMN 200 uM) [nM],apparent KD of MS2 coat protein [1] [nM],apparent KD of MS2 coat protein (input ligand: none) [nM],apparent KD of MS2 coat protein [2] [nM],apparent KD of MS2 coat protein [3] [nM],apparent KD of MS2 coat protein [4] [nM]
"AAAAAAAGACAAGAGGAGAUUCGUCUUAAAAAUCCUCAAACAUGAGGAUCACCCAUGUAAAAUGAUCGAAAGAUCAA [Mat - Sensor v2 - ver2 - JL mod - D39] (Eterna round: R96, puzzle: Sensor v2, turn-off variant 2)",25.7,24,29.2,,,
AAAAAACAAGGAUAUACGAAGGAGGGUUGUCUUAAUUUUUGACAUGAGGAUCACCCAUGUAGAAGGUGUUAAAA [JR_Exclusion2_Sub012] (puzzle: Exclusion 2),,,,146,186,188
AAAAAACAAGGAUAUACGCACGAGGAUUGUCUUAAUUUUUGACAUGAGGAUCACCCAUGUAGAAGGUGUUAAAA [JR_Exclusion2_Sub014] (puzzle: Exclusion 2),,,,,76.5,
AAAAAACAAGGAUAUACGUAUGAGGAUUGUCUUAAUUUUUGACAUGAGGAUCACCCAUGUAGAAGGUGUUAAAA [JR_Exclusion2_Sub015] (puzzle: Exclusion 2),,,,,94.9,
"AAAAAAUACAUGAGGAUCACCCAUGUAGAGUGGGAAGAGAGAUAGGAUAUGAUGUGAGAAUCAUAUCAGAAGGAUCGAGACUCA [AK ExNG3-2.2] (Eterna round: R96, puzzle: Exclusion NG 3)",143,110,139,,,
"AAAAACAAGCCCAUGCUCGUCUUAAGAUCGAAAGAUCAAACAUGAGGAUCACCCAUGUGCGAGCAUGGGUGAUCCUC [Sensor v2, turn off variant 2 (JL Turnoff v2 4 - MOD3)] (Eterna round: R96, puzzle: Sensor v2, turn-off variant 2)",21.9,10.2,16.6,,,
AAAAAGAGAGGAUAUACAUGAGGAUCACCCAUGUGAGGGCACCGCGGGCGCGGGACCCGUAGAAGGCUCAAAAA [Exc;s3-I] (puzzle: Exclusion 3),,,,16.5,14.7,20.5
"AAAAAGGCAGGAUAUACGAGUCAAAGAAAAGACAAAAGGAGACAUGAGGAUCACCCAUGUAGAAGGGCCAAAAA [Fiskers exclusion D2 62% 5] (Eterna round: R96, puzzle: Exclusion 2)",85.2,20.6,25.3,,,
"AAAAAGGGAGGAUAUACAUGAGGAUCACCCAUGUAGCAGACGAAAAAGAGUCUGUAAUGUAGAAGGCCCAAAAA [65%, Moding Exclusion3-cac2, 4] (Eterna round: R96, puzzle: Exclusion 3)",50.9,13.1,17.5,,,
"AAAAAGUUAGGAUAUACAUGAGGAUCACCCAUGUACAUAUAUGGAGAAAAAAACAGUAGUAGAAGGGACAAAAA [EX2 Malc#12] (Eterna round: R96, puzzle: Exclusion 3)",28.8,23.3,29.2,,,
"AAAACCAGAGGAUAUGCGCAUAGAUAAGACUUUGUUUCUUAACAUGAGGAUCACCCAUGUAGAAGGCUGUAAAA [Ex2 #71] (Eterna round: R97, puzzle: Exclusion 2)",20.6,,22,,,
AAAACGGCAGGAUAUACAUGAGGAUCACCCAUGUGAAAUAAAAUAAAAUAAAAUAAAAGUAGAAGGGCCAAAAA [Exclusion 3 #3] (puzzle: Exclusion 3),,,,40.4,40.7,58.6
"AAAACUGCCUAGGAUAUCUGAAGCCGAGGUAGAAGAGAAGGAGGCACAUGAGGAUCACCCAUGUCCCUCAUAAA [EX6 A.8] (Eterna round: R97, puzzle: Exclusion 6)",16.8,,14.3,,,
AAAACUGCUCAGGAUAUUUGUGUGUCAGGGCAUAAAGAAGGGAGCACAUGAGGAUCACCCAUGUGUUGGGUUCC [Zasozaer] (puzzle: Exclusion 6),,,,,68.7,
"AAAACUUUGAGAGGAUAUCUGAAAGGAAGUGUAAGAGAAGGCUCAGAGGACAUGAGGAUCACCCAUGUACGUCAUGGGCUCCGA [PowerStrip EXNG 1.15] (Eterna round: R96, puzzle: Exclusion NG 1)",49.8,39.6,111,,,
AAAAGAAGUGUUAGGAUAUGUGGAAGUAGAAAGACACAGAAGGAACAUGAGGAUCACCCAUGUGGCCUAAGAAC [Bibire] (puzzle: Brourd's mod of Exclusion 4),,,,15.4,10.5,11.6
"AAAAGGCAAGCAUGAUCCCACAUGAGGAUCACCCAUGUGUUCGUCUUAUAGGCUGCUGAGGCUUUUGCCUCGGUGGC [LRO Sensor-off var1-05 loose mod of D91 from Mat747] (Eterna round: R97, puzzle: Sensor, turn-off variant 1)",587,,728,,,
"AAAAGGCAGGGAGGAUAUGCUUACCUGGGUCGUCUUCAAACAUGAGGAUCACCCAUGUAGUCGACGCAGAAGGCCCUCAAAGCC [Mat - Exclusion NG 2 - Mod of JL - D58] (Eterna round: R96, puzzle: Exclusion NG 2)",39.6,21.2,22.7,,,
"AAAAGGCGAGGAUAUCCGGGCACGGACAUGAGGAUCACCCAUGUGACCUCGCCCGGCGGAGGAGAAGGCGCCGAAG [Biestein] (Eterna round: R97, puzzle: Exclusion 5)",368,,158,,,
AAAAGGCGUGUGAGGAUAUCCGGAGACGUGAAAAGGGAGAAGGCACAUGAGGAUCACCCAUGUGGAGUGUAAAG [Uscece] (puzzle: Brourd's mod of Exclusion 4),,,,38.2,18.6,27.5
AAAAGGUCAGGAUAUUCAAGAAAAGAAAAGAAAAGAAAAGAGAAGAAGGGACAUGAGGAUCACCCAUGUAAAAG [Default title] (puzzle: Exclusion 4),,,,24.9,18.9,13.5
"AAAAGUCUUUAGGAUAUGUGCGAUUAAUAUCGUGCAGAAGGAAGGACAUGAGGAUCACCCAUGUUGAAGACAAC [Omei Ex6 A19] (Eterna round: R97, puzzle: Exclusion 6)",51.1,,22.1,,,
"AAAAGUUGGUAAGGAUAUCCCACAUUAUUCUGACCCGUGCAAGCUACAUGAGGAUCACCCAUGUGGGAGAAGGUGCGUUAAAGA [Zatiisor] (Eterna round: R96, puzzle: Exclusion NG 2)",209,55.1,78.8,,,
"AAAAUACAUGAGGAUCACCCAUGUCAGGAUAUGCUAAAAAAAAAAUUAAAAAAAAAAUGUAGAAGGGACUAAAA [Exclusion Z2] (Eterna round: R96, puzzle: Exclusion 1)",,71.6,,,,
"AAAAUACGCACAGGAUAUCAAUACAUGAGGAUCACCCAUGUAACAUGGACUGGUCAGCAGAAAAGUGAGAAGGGUGCUGACGAC [Beraon] (Eterna round: R96, puzzle: Exclusion NG 2)",187,31.6,45.6,,,
